The source of these data is article PMC5006017.

By pKd is commonly meant the Kd on a negative log10 scale, so that one unit is a factor of ten.

pKd: −log10 of the molar value.

The assay deals with syntenin-1 N-terminal wild-type peptide, biotinylated (UniProt O00560). Briefly: SPR; BIAcore 3000; biotinylated syntenin-1 N-terminal peptides immobilised on streptavidin-coupled CM5 chips, ALIX V-domain injected at 20 μl/min; 10 mM HEPES pH 7.4, 150 mM NaCl, 0.005% Surfactant P20; equilibrium analysis, one-site binding model.

“ALIX V-domain (ALIX 364-716) (from UniProt Q8WUM4 364-716) (domain or fragment)” had a pKd of 4.54.
